Test [1] addresses APP pY682 peptide (Homo sapiens) (UniProt P05067). Conditions: cited from earlier work.
Test [2] has as its target T1, Vav2-SH2 domain (Homo sapiens, UniProt P52735).
T1 construct: the DNA fragment encoding the SH2 domain of Vav2 (residues 659–771) was cloned into a pET28a (+) (Novagen) plasmid; 6xHis (N, cleaved yes); made in house; host or cells: Escherichia coli BL21 (DE3)
T1 sequence (P52735 659-771): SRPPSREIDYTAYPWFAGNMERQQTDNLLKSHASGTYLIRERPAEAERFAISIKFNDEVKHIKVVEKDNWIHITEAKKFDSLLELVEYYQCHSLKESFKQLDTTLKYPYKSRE
The test can be described thus: ITC binding of APP peptides to Vav2-SH2. The conditions noted are these: 298 K, 10 mM Tris/HCl, 100 mM NaCl. From the text:
For NMR and ITC experiments, the DNA fragment encoding the SH2 domain of Vav2 (residues 659–771) was cloned into a pET28a (+) (Novagen) plasmid as described previously, generating a fusion protein with an N-terminus 6 × His tag. For GST pull-down experiments, the Vav2-SH2 was subcloned into pGEX4T-1 vector. The APP expression plasmid pAPPsw and the Vav2 expression plasmid pCMV5-myc-Vav2 were constructed as previously described[55],[66]. Mutants were generated by PCR mediated site-directed mutagenesis. All the constructs were verified by DNA sequencing.
The recombinant plasmids harboring His-tagged or GST-tagged Vav2-SH2 were transformed into Escherichia coli BL21 (DE3) (Novagen) strain. Cells were grown at 37 °C up to an A600 nm of 0.8, and then were induced with 0.5 mM IPTG at 25 °C for 8 h. […] Protein concentrations were estimated with absorbance spectroscopy using the molar absorption coefficient. […]
ITC experiments were performed at 298 K on a PEAQ-ITC titration calorimeter (MicroCal, Northampton, MA). […] ITC data were analyzed with a single-site binding model using Microcal PEAQ-ITC software.

The target in test [3] is T1, Vav2-SH2 domain. The test can be described thus: NMR titration (2D 1H-15N HSQC) of 15N-labeled Vav2-SH2 with APP peptides. It is filed as binding. Conditions: 0.1 mM 15N-Vav2-SH2, 20 mM Tris/HCl, 100 mM NaCl, 3 mM DTT, 90% H2O/10% D2O, pH 7.0, 293 K, 600 MHz; protein:peptide up to 1:3 (APP-pY682) or 1:4 (APP-Y682). As for the experimental part:
The recombinant plasmids harboring His-tagged or GST-tagged Vav2-SH2 were transformed into Escherichia coli BL21 (DE3) (Novagen) strain. Cells were grown at 37 °C up to an A600 nm of 0.8, and then were induced with 0.5 mM IPTG at 25 °C for 8 h. For the production of uniformly ^15N-labeled samples, cells were grown in minimal medium using ^15NH4CL (0.5 g/L) as the sole nitrogen source. ^15N-NH4Cl was purchased from Cambridge Isotope Laboratories, Inc. The His-tagged proteins were purified by a chelated-nickel column followed by Thrombin protease treatment to remove the tag as previous described. The GST and GST fusion proteins were purified using immobilized glutathione. All proteins were further purified on a Superdex75 gel-filtration column (GE Healthcare, Piscataway, NJ, USA). The purity of proteins was confirmed by SDS–PAGE. Protein concentrations were estimated with absorbance spectroscopy using the molar absorption coefficient. […]
The NMR sample of the apo Vav2-SH2 contained 0.1 mM of protein was dissolved in NMR buffer: 20 mM Tris/HCl with 100 mM NaCl, 3 mM DTT in 90% H2O, 10% D2O (pH 7.0). […] A series of ^1H–^15N HSQC spectra were recorded as the titrant gradually titrated into the protein solutions using the Bruker hsqcfpf3gpphwg pulse program. […] NMR data were processed with NMRPipe[67] and analyzed using Sparky3 (Goddard and Kneller, University of California, San Francisco). […]

The test system of test [4] is full-length APPsw. The test can be described thus: GST pull-down of full-length APPsw from 20E2 cell lysate. It is filed as binding. Conditions: 20E2 cell lysate 0.2 mg, 1 mg GST fusion on glutathione-agarose, 2 h; western blot (C20). As for the experimental part: The recombinant plasmids harboring His-tagged or GST-tagged Vav2-SH2 were transformed into Escherichia coli BL21 (DE3) (Novagen) strain. Cells were grown at 37 °C up to an A600 nm of 0.8, and then were induced with 0.5 mM IPTG at 25 °C for 8 h. For the production of uniformly ^15N-labeled samples, cells were grown in minimal medium using ^15NH4CL (0.5 g/L) as the sole nitrogen source. ^15N-NH4Cl was purchased from Cambridge Isotope Laboratories, Inc. The His-tagged proteins were purified by a chelated-nickel column followed by Thrombin protease treatment to remove the tag as previous described. The GST and GST fusion proteins were purified using immobilized glutathione. All proteins were further purified on a Superdex75 gel-filtration column (GE Healthcare, Piscataway, NJ, USA). The purity of proteins was confirmed by SDS–PAGE. Protein concentrations were estimated with absorbance spectroscopy using the molar absorption coefficient.
One hundred microliter glutathione-agarose beads were incubated with 1 mg purified GST or indicated GST-SH2 fusions and the mutant GST-SH2^R680A for 2 h at 4 °C in GST binding buffer (20 mM Tris/HCl, pH 7.4, 150 mM NaCl and 1 mM EDTA, 0.5% TritonX-100). […] After washing 4 times with GST binding buffer, beads were boiled in SDS sample buffer, run on 12% SDS–PAGE gel and analyzed by Coomassie or immunoblotting.
For orientation: In western blotting, separated proteins are transferred to a membrane and probed.

This is an account of results in paper PMC9325707, “Vav2 is a novel APP-interacting protein that regulates APP protein level” (Scientific Reports, 2022).

Non-standard residues stand in square brackets, D forms with d. Residues, ends and D or L forms follow the SMILES beside them. pY = N[C@@H](Cc1ccc(OP(=O)(O)O)cc1)C(=O)O

APP pY682 peptide (Homo sapiens), sequence (P05067 whole entry, looked up, the tested form may be a part): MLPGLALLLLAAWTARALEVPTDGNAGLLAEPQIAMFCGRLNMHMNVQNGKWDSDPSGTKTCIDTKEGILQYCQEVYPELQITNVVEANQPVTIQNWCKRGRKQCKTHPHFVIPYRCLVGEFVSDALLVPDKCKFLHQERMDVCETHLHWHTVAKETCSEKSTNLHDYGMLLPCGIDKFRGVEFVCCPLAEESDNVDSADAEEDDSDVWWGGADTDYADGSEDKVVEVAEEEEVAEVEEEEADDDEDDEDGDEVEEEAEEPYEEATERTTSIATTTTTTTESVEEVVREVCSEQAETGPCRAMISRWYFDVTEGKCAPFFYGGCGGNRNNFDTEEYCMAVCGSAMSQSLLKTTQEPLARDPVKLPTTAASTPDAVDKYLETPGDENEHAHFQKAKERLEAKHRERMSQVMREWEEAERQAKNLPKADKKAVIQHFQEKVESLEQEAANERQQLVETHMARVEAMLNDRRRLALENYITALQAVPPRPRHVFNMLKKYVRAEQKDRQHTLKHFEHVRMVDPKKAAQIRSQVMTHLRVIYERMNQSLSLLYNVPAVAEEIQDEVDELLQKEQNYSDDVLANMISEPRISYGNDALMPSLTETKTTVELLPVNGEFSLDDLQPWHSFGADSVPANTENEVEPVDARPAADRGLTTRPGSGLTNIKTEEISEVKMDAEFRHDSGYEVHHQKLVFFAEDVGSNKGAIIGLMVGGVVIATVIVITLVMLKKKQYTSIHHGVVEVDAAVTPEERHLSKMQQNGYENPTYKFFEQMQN

Regarding Grb2 SH2 (from UniProt P62993), the Kd in test [1] is 290 nM.
`C[C@@H](O)[C@H](NC(=O)[C@@H]1CCCN1C(=O)[C@H](CC(N)=O)NC(=O)[C@H](CCC(=O)O)NC(=O)[C@H](Cc1ccc(OP(=O)(O)O)cc1)NC(=O)CNC(=O)[C@H](CC(N)=O)NC(=O)[C@@H](N)CCC(N)=O)C(=O)O` [APP-pY682] (H-QNG[pY]ENPT-OH) returned a Kd in test [2] (pH 7.4, 0.75 mM peptide titrated into 30 μM Vav2-SH2, single-site binding model) of 860 nM.
As for QNGYENPT [APP-Y682], in test [3], the “chemical shift perturbations (CSPs) in 1H-15N HSQC of Vav2-SH2” value is given as “did not induce any chemical shift perturbations”. In addition, the “binding in ITC (result in words)” value in test [2] (pH 7.4, 0.75 mM peptide titrated into 30 μM Vav2-SH2) is listed as “no binding”.

B1: GST-Vav2-SH2: wild-type GST-Vav2-SH2 protein (protein)
chain: SRPPSREIDYTAYPWFAGNMERQQTDNLLKSHASGTYLIRERPAEAERFAISIKFNDEVKHIKVVEKDNWIHITEAKKFDSLLELVEYYQCHSLKESFKQLDTTLKYPYKSRE
modifications: left off: GST, end not stated, kept
notes: wild-type GST-Vav2-SH2 protein
Take B1: the “binding to full-length APPsw in GST pull-down (result in words)” value in test [4] is “bound selectively to full-length APPsw”.

B2: R680A mutant: R680A mutant of GST-Vav2-SH2 protein (negative control) (protein)
chain: SRPPSREIDYTAYPWFAGNMEAQQTDNLLKSHASGTYLIRERPAEAERFAISIKFNDEVKHIKVVEKDNWIHITEAKKFDSLLELVEYYQCHSLKESFKQLDTTLKYPYKSRE
modifications: left off: GST, end not stated, kept
Take B2: the “binding to full-length APPsw in GST pull-down (result in words)” value in test [4] was “not GST alone or the R680A mutant bound selectively to full-length APPsw”.
